Assay [1] addresses C. elegans UBR4 (C. elegans). The assay is described as follows: not stated; molecular weight of the purified C. elegans UBR4 complex (Fig. S13A).
In the next assay the target is human UBR4 (human) (UniProt Q5T4S7). Kind of assay: mass photometry; isolated human UBR4/KCMF1/CALM1 complex, co-expressed in insect cells and purified via a tag on UBR4.

What is called stoichiometry N is a count of units in the complex or per binding partner.

Sequence of human UBR4, Q5T4S7 1-5183 (enzyme) (Q5T4S7 whole entry): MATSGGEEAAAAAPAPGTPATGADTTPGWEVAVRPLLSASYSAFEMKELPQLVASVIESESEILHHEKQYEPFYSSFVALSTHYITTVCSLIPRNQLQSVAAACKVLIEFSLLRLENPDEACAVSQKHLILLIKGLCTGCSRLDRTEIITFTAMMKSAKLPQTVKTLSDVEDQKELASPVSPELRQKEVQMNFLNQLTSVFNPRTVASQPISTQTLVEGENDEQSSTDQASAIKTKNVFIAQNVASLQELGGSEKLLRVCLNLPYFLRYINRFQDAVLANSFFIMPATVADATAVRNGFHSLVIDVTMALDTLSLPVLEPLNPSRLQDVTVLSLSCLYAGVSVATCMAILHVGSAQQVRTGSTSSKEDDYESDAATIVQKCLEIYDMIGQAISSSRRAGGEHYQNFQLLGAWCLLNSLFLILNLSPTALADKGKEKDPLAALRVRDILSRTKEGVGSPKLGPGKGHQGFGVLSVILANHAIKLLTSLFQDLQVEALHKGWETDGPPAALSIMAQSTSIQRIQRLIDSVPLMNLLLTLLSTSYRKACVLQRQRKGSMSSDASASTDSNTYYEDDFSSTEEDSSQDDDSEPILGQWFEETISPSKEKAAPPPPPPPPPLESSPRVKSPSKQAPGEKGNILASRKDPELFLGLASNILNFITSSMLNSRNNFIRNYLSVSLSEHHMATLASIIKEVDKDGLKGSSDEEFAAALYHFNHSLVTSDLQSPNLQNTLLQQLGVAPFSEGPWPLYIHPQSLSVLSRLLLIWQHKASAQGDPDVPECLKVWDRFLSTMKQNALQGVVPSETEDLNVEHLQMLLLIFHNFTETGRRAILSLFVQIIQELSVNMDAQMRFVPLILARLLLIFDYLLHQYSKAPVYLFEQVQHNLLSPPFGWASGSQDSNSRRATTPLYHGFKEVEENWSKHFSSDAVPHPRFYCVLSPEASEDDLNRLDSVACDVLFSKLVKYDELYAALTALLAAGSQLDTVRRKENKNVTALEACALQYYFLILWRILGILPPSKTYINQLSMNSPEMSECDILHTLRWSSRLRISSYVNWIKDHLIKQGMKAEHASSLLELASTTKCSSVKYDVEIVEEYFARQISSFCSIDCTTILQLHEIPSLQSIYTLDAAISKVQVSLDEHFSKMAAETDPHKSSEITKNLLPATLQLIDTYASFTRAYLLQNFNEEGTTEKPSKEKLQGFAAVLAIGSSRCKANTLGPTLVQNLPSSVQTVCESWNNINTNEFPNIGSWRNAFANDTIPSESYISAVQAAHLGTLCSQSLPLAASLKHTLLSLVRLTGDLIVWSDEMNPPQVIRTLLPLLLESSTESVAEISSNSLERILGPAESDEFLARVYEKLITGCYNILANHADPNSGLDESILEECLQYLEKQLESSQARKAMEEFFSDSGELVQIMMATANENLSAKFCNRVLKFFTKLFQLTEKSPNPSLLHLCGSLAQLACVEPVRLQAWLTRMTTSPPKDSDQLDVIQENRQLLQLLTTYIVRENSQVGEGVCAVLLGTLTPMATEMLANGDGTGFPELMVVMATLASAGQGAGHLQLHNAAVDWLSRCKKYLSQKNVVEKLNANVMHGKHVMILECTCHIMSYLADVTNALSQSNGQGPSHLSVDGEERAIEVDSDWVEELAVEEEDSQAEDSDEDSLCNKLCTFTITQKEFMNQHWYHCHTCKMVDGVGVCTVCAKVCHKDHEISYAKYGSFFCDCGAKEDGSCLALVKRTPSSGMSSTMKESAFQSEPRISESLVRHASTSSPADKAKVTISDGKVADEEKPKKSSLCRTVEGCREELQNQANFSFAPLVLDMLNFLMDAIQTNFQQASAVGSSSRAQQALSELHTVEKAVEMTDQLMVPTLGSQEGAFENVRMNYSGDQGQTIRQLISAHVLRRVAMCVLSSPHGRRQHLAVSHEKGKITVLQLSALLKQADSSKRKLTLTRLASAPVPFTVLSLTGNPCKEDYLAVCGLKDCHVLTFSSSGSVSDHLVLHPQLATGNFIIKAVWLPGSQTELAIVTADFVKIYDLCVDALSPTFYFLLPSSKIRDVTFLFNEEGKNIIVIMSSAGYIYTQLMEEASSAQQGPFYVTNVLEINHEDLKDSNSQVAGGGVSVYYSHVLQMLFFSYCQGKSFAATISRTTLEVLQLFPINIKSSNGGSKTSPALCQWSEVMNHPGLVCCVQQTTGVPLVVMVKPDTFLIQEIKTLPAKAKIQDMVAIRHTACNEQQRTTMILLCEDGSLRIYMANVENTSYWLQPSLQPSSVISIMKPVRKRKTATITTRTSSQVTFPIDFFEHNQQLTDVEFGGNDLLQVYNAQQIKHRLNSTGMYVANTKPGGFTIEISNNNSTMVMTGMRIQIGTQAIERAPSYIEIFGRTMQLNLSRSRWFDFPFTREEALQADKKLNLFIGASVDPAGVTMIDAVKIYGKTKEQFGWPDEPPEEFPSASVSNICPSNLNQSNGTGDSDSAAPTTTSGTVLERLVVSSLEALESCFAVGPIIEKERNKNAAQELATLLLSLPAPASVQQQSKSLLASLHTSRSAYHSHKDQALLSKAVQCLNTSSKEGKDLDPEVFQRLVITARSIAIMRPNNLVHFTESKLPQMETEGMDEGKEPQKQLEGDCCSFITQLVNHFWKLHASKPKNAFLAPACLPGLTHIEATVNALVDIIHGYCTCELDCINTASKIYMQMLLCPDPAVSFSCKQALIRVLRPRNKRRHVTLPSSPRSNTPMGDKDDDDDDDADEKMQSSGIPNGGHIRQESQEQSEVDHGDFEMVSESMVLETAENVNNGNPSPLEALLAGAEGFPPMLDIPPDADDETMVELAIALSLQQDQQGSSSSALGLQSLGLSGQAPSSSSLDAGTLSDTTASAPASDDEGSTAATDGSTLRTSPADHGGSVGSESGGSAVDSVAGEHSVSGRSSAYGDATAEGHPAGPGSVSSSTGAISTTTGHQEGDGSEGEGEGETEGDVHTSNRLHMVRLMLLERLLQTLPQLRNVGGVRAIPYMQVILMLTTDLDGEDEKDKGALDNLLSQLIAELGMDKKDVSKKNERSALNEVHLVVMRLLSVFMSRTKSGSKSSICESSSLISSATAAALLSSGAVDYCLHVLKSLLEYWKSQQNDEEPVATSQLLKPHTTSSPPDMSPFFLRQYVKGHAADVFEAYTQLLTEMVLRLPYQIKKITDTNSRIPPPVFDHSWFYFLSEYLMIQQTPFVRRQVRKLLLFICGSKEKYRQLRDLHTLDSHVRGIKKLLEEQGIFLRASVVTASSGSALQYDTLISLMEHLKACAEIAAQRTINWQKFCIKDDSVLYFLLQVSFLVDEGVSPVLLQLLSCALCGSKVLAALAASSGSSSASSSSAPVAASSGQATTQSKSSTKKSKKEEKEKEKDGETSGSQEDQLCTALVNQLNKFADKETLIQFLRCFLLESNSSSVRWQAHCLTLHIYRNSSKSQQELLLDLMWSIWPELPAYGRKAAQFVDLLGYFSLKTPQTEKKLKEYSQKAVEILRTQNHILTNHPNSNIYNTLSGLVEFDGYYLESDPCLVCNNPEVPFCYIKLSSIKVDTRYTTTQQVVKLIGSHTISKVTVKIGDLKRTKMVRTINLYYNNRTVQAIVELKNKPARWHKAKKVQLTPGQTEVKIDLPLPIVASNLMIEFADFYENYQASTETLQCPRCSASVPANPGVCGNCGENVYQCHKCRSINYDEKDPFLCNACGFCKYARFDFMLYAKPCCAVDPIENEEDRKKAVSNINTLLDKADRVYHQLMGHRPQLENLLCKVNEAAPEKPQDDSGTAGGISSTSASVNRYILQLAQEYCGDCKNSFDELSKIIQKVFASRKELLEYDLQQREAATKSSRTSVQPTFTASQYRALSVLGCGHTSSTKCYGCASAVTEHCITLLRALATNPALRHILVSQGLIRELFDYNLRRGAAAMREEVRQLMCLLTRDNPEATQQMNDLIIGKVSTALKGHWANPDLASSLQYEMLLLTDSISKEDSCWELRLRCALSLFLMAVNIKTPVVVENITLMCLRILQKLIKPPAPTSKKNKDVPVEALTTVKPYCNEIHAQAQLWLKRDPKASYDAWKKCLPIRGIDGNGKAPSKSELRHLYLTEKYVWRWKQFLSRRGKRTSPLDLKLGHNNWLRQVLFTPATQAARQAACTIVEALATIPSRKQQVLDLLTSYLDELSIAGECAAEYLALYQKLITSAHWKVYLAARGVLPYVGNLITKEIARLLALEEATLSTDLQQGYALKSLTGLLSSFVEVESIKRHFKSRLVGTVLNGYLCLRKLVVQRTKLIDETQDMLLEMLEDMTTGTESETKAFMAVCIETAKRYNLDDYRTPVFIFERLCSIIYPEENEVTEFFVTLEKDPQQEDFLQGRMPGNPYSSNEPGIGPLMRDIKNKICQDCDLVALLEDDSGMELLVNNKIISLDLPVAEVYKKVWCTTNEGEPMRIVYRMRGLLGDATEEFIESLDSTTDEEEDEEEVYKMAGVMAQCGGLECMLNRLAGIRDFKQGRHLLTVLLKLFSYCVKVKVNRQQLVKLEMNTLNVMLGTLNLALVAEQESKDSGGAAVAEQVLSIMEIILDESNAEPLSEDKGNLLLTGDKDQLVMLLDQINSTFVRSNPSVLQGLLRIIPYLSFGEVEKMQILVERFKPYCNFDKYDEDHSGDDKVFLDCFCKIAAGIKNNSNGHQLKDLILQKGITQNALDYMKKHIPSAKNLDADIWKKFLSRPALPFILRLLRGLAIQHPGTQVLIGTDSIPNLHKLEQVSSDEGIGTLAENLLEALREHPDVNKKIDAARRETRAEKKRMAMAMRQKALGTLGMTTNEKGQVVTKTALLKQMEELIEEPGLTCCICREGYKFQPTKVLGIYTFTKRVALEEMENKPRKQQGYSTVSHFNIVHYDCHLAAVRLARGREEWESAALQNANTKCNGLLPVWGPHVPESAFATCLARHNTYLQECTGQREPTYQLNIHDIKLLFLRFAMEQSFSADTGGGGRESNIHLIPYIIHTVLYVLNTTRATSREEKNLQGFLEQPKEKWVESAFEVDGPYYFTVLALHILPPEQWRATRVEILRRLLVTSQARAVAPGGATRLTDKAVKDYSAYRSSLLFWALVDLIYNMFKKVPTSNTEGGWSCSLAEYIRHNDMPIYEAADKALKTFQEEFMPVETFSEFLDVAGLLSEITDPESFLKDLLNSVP

Take C. elegans UBR4, A0A0S4XR36 1-4218: the stoichiometry N in assay [1] came out at 2.
In the assay with human UBR4 (human), human UBR4, Q5T4S7 1-5183 (enzyme) had a stoichiometry N of 2.

These data come from paper PMC7618180.
